In doi:10.1101/2021.02.18.431788:

Molecular target: Neurofibromin (NF1), full length, isoform 1 (human) (UniProt P21359)
Test: AUC

stoichiometry N: 2
Substance: Neurofibromin (NF1), full length, isoform 1, P21359-2 1-2818
